{"source": "paper PMC3097263", "binders": {"B1": {"name": "PrpoS 25-mer (dsDNA)", "DNA 1": "TGGTCAGACCTTGCAGGTGGGTAAT", "DNA 2": "ATTACCCACCTGCAAGGTCTGACCA"}}, "molecular_target": "MqsA (UniProt Q46864 1-131)", "sequence (Q46864 whole entry)": "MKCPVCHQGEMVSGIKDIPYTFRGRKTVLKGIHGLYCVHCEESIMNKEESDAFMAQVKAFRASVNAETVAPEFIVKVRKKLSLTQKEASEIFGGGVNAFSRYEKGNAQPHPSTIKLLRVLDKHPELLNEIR", "test": "EMSA", "data": [{"binder": "B1", "values": [{"measurement": "binding result", "result": "binds"}]}]}
